For 1 molecule, Kd results are on record in patent US20230176070A1 (published 2023).

The target in the test is glutathione S-transferase (UniProt P08515 1-218 = GST). Briefly: SPR. In general terms: Surface plasmon resonance follows binding to a sensor surface in real time, without labels.

Usually Kd stands for a measure of binding affinity in units of concentration. Low readings indicate higher affinity, high ones lower affinity.

Sequence of glutathione S-transferase (P08515 whole entry): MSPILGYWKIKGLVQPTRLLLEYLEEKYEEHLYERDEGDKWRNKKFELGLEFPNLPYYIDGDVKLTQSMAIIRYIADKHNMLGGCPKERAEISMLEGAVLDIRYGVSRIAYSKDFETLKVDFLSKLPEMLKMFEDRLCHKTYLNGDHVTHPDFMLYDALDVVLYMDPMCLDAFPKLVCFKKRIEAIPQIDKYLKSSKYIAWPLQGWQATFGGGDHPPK

B1: G47 (VHH)
VHH: QVQLVESGGGLVQAGGSLRLSCAASERIFSNYAMGWFRQAPGKEREFVASIRGSGSQTSYADSVKGRFTISRDGAKDTVDLQMNSLKPEDTAVYYCSAKKYCGSTYNRAEGYDYWGQGTQVTVSS
In turn, B1 returned a Kd of 17.6 nM.
